# Measurements reported in FireProtDB (doi:10.1371/journal.pone.0110439).
# Conditions: Homo sapiens, pH 7, transition: 2, structure 1DXX; for ddG of mutation (higher = less stable) / unfolding free energy: Urea; for Tm / change of melting temperature, mutant - wild type (higher = more stable): Thermal
# [1] = 25 °C, Fluorescence, PBS, reversible: yes
# [2] = CD, sodium phosphate 0.1 M, NaCl 0.15 M, reversible: yes
# [3] = Fluorescence, sodium phosphate 0.1 M, NaCl 0.15 M, reversible: yes
substance,measurement,setting,value
"Dystrophin, P11532 K18N",ddG of mutation (higher = less stable),[1],3.7 kcal/mol
same,unfolding free energy,[1],7.5 kcal/mol
same,Tm,"CD, PBS, reversible: no",57.6 °C
same,"change of melting temperature, mutant - wild type (higher = more stable)","CD, PBS, reversible: no",-3.4 °C
same,Tm,[2],57.6 °C
same,"change of melting temperature, mutant - wild type (higher = more stable)",[2],-3.4 °C
same,ddG of mutation (higher = less stable),[2],3.7 kcal/mol
same,unfolding free energy,[2],7.5 kcal/mol
same,ddG of mutation (higher = less stable),[3],3.7 kcal/mol
same,unfolding free energy,[3],7.5 kcal/mol
